Assay in all cases: cell-based or functional assay
One experiment concerns the target HIV-1 APV17 Env (HIV-1).
Experiment [1] has as its target HIV-1 JR-CSF Env D325A (HIV-1 isolate JR-CSF) (UniProt P20871).
For experiment [2], the target named is HIV-1 JR-CSF Env I309A (HIV-1 (isolate JR-CSF, clade B)) (UniProt P20871).
Experiment [3] has as its target HIV-1 JR-CSF Env N332A (HIV-1 isolate JR-CSF) (UniProt P20871).
Experiment [4] has as its target HIV-1 JR-CSF Env T388A (HIV-1 isolate JR-CSF) (UniProt P20871).
A further experiment has as its target HIV-1 JRFL Env (HIV-1).
The target of experiment [5] is HIV-1 MGRM-AG-005 Env (HIV-1).
The target of experiment [6] is HIV-1 MGRM-D-001 Env (HIV-1).
Experiment [7] deals with HIV-1 envelope glycoprotein (Env) of isolate JR-FL, on pseudovirus (HIV-1).
The target of experiment [8] is HIV-1 JR-CSF Env N355A (HIV-1 isolate JR-CSF) (UniProt P20871).
For experiment [9], the target named is HIV-1 JR-CSF Env P299A (HIV-1 (isolate JR-CSF, clade B)) (UniProt P20871).
The target of experiment [10] is HIV-1 JR-CSF Env Q337A (HIV-1 isolate JR-CSF) (UniProt P20871).
Experiment [11] deals with HIV-1 JR-CSF Env R327A (HIV-1 isolate JR-CSF) (UniProt P20871).
The target in experiment [12] is HIV-1 envelope glycoprotein (Env) of isolate 94UG103 (HIV-1).
Experiment [13] addresses HIV-1 JR-CSF Env N295A (HIV-1 (isolate JR-CSF, clade B)) (UniProt P20871).
Experiment [14] concerns the target HIV-1 JR-CSF Env T320A (HIV-1 (isolate JR-CSF, clade B)) (UniProt P20871).

Bounds are passed on as bounds.

Turning to 4858_P08 (PGT-123) (antibody), the IC50, pseudovirus neutralization was determined as 0.18 mg/L in the experiment with HIV-1 APV17 Env (HIV-1); 0.0283 mg/L with HIV-1 JRFL Env (HIV-1); 0.104 mg/L in [5]; 0.215 mg/L in experiment [6]; 0.014 mg/L in [7]. The Fold IC50 increase relative to wild-type in experiment [1] was 64 fold; in [2], 1.6 fold; in experiment [3], above 200 fold; in [4], 0.2 fold.
For 5141_B17 (PGT-126) (antibody), the IC50, pseudovirus neutralization was 0.501 mg/L with HIV-1 APV17 Env (HIV-1); 0.014 mg/L with HIV-1 JRFL Env (HIV-1); 1.35 mg/L in experiment [5]; 0.0639 mg/L in experiment [6]; 0.014 mg/L in [7]. For the same substance, the Fold IC50 increase relative to wild-type in [3] is 181 fold; in experiment [8], 0.2 fold; in [9] it was 0.2 fold; in experiment [10], 0.4 fold; in [11], 2.2 fold. Besides, the Neutralization IC80 in experiment [12] stood at 0.0316 mg/L. Moreover, in [12], the Neutralization IC90 was 0.0655 mg/L. In experiment [12], the Neutralization IC95 was 0.128 mg/L. Besides, the neutralization IC50 in experiment [12] was 0.0091 mg/L.
For 5123_A06 (PGT-125) (antibody), the IC50, pseudovirus neutralization in the experiment with HIV-1 APV17 Env (HIV-1) is 7.31 mg/L; with HIV-1 JRFL Env (HIV-1), 0.0156 mg/L; in [5], above 10 mg/L; in [6] it was 2.31 mg/L; in experiment [7], 0.009 mg/L. The Fold IC50 increase relative to wild-type came to 0.4 fold in [1]; 0.8 fold in experiment [13]; 2 fold in experiment [3]; 1.2 fold in [8]; 0.2 fold in [9]; 0.8 fold in experiment [10]. In [14], this substance registered a Fold IC50 increase relative to wild-type of 0.8 fold.
With 5136_H01 (PGT-131) (antibody), the Fold IC50 increase relative to wild-type is above 170 fold in experiment [1]; 8.8 fold in experiment [2]; 2.1 fold in [13]; 2.3 fold in [8]; 2 fold in experiment [9]; 1.3 fold in experiment [10]. For the same substance, the Fold IC50 increase relative to wild-type in experiment [11] is 19 fold; in experiment [14], 4.5 fold.

(Values after patent US20240132578A1.)
